Source: US5200320A, “Method for identifying useful polypeptide vaccines” (National Jewish Center for Immunology and Respiratory …, priority 1987, dated 1993)
Ends that are not written are not given here.

Biological target: T1, IA^d (Mus musculus, UniProt P01921+P04228)
T1 sequence (P04228 24-256): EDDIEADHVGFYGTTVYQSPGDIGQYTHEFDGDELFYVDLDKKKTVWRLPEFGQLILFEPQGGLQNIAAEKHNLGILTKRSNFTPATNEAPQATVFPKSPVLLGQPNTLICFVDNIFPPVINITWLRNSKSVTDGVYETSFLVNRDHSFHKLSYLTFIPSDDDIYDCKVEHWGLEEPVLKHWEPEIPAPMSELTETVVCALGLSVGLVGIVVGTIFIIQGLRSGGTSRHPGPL
T1 sequence (P01921 28-265): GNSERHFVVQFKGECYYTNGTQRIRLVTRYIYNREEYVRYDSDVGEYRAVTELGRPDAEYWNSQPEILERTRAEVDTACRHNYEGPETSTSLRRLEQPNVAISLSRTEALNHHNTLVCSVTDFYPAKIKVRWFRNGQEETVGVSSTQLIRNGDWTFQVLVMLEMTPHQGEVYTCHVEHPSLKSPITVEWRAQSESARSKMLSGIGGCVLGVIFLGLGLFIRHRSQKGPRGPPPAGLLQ
Assay: Inhibition of binding of 125I-radiolabelled Ova 323-339 to purified IA^d (gel filtration competition assay)
Conditions: Table 7, good binders; concentration of the indicated polypeptide
Excerpt: The following examples will illustrate the method of the present invention. First, a critical binding segment of a first polypeptide that binds to a first type of MHC, was ascertained. […] This was accomplished by the method described in Sette, et al, Nature, Vol. […] No. 6129, pp. 395-399, Jul. 30, 1987, the entirety of which is incorporated herein by reference. […] For convenience, Table I of that paper illustrating the foregoing procedure, is attached as Table 2.
The effect which the substitutions indicated by an "X" in Table III, had on the binding strength of the critical binding segment listed at the top of attached Table 4, was quantitatively calculated, and a numerical designation assigned to the substituting amino acid based upon the degree of that effect. The foregoing assigned numerical designations for each "X" position indicated in Table 3, is listed at corresponding positions in Table 4. The quantitative evaluations of the binding strength were made using a competition assay as described in Sette, et al, supra, and the numerals assigned according to the decrease in the binding activity as follows:
The value of "binding" listed in Tables 6 and 7, is in micromolar concentration of the indicated polypeptide. The assay used was the same as that in Sette et al, supra, for quatitative estimation of Ia peptide interaction.
In particular, as pointed out in Sette et al., supra, T-cell recognition is much less permissive than MHC recognition. […] However, as one would expect, when the binding strength of a polypeptide to an MHC types of an individual animal is poor, little or no immunogenic response would result. However, if a polypeptide is a good binder, as ascertained by the above method, then immunogenicity would be expected to be a possibility. […] Binding to a class II MHC type IA^d and IE^d (d strain of mouse) was evaluated using the same assay technique as used to evaluate the binding for the polypeptides in Tables 6 and 7 above.

Substance	IC50 [µM]	BINDING (M)
AHRVQLGPRSLQVLLIP [JF 39]	25	–
APYTSTLLAPELSETP [HSVD 245-260]	–	22/2
FISEAIIHVLHSR [Myo 106-118]	20	–
HNTNGVTAACSHE [Ha 130-142]	9	–
SAESLKISQAV [Ova Site II]	5	–

Biological target: T1, IA^d
Assay: not given
Conditions: amount of unlabelled Ova 323-339 divided by amount of truncated peptide needed to inhibit binding of 125I Ova 323-339 to IA^d by 50%; averages of 2-4 experiments; cited from earlier work

Substance	Relative I-A^d binding capacity
Ova peptide 323-331: C-terminal truncation of Ova 323-339, ending in H (KISQAVHAA; UniProt P01012 323-331, looked up, fragment)	< 0.005
Ova peptide 323-332: C-terminal truncation of Ova 323-339, ending in A (KISQAVHAAH; UniProt P01012 323-332, looked up, fragment)	0.2
Ova peptide 323-333: C-terminal truncation of Ova 323-339, ending in E (KISQAVHAAHA; UniProt P01012 323-333, looked up, fragment)	0.6
Ova peptide 323-335: C-terminal truncation of Ova 323-339, ending in N (KISQAVHAAHAEI; UniProt P01012 323-335, looked up, fragment)	1.0
Ova peptide 323-336: C-terminal truncation of Ova 323-339, ending in E (KISQAVHAAHAEIN; UniProt P01012 323-336, looked up, fragment)	1.1
Ova peptide 325-339: N-terminal truncation of Ova 323-339, starting with Q (SQAVHAAHAEINEAG; UniProt P01012 325-339, looked up, fragment)	1.1
Ova peptide 326-339: N-terminal truncation of Ova 323-339, starting with A (QAVHAAHAEINEAG; UniProt P01012 326-339, looked up, fragment)	0.5
Ova peptide 327-339: N-terminal truncation of Ova 323-339, starting with V (AVHAAHAEINEAG; UniProt P01012 327-339, looked up, fragment)	0.3
Ova peptide 328-339: N-terminal truncation of Ova 323-339, starting with H (VHAAHAEINEAG; UniProt P01012 328-339, looked up, fragment)	0.014
Ova peptide 329-339: N-terminal truncation of Ova 323-339, starting with A (HAAHAEINEAG; UniProt P01012 329-339, looked up, fragment)	< 0.005
